Common to all, as to experiment: BLI
For orientation: In BLI a coated tip is dipped into the sample, and binding shifts an interference pattern.

Assay [1] concerns the target T1, anti-idiotype vNAR-Fc variant S9 (bamboo shark, biotin (EZ-Link Sulfo-NHS-LC-Biotin) in the cellular binding assay only).
T1 chain: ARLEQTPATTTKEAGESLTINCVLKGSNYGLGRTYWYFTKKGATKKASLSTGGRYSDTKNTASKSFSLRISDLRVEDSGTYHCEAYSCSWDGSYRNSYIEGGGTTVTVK

In assay [2] the target is T2, anti-idiotype vNAR-Fc variant S2 (bamboo shark, biotin (EZ-Link Sulfo-NHS-LC-Biotin) in the cellular binding assay only).
T2 chain: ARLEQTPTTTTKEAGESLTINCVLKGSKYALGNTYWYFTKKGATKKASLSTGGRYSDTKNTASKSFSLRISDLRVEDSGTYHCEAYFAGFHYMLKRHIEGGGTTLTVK

The target in assay [3] is T3, anti-idiotype vNAR-Fc variant S4 (bamboo shark).
T3 chain: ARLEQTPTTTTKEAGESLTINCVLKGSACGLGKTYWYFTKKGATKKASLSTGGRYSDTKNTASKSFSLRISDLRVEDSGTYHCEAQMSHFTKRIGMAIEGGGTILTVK

The target of assay [4] is T4, anti-idiotype vNAR-Fc variant S7 (bamboo shark).
T4 chain: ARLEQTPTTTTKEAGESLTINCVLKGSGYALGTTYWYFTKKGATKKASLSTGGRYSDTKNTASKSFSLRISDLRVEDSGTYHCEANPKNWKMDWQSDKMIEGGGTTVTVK

B1: soluble recombinant B-cell receptor (BCR) of lymphoma cell line SUP-B8, produced as full-length IgG (antibody, V domains shown)
VH: LVQSGGEVKKPGASVKVSCKASGYTFHSYGITWVRQAPGQGLEWMGWINGYNGYTNYAQKLQDRVTMTTNTSTNTVYMEVRSLRSDDTAVYYCARDDCSGDNCYMSAYWGQGTVVTVSS
VL: QSVLTQPPSASGTPGQRVTISCSGSSSNIASNYVYWYQQLPGMAPKLLIYRDNQRPSGVPDRFSGSRSGTSASLAISGLRSDDEADYYCATWDDSLSGWVFGGGTKLTVL
For orientation: Kd means the concentration at which binding is half-saturated. A high value points to weaker binding. For B1, the Kd in assay [1] is 11 nM; in assay [2], 4.5 nM; in assay [3], 5.3 nM; in assay [4], 1.9 nM.
